Among the data in the RNAGym collection of RNA variant scans (doi:10.7554/elife.80360) are self-cleavage values, retold here.

B1: HDV Ribozyme (parent)
chain: GGCCGGCAUGGUCCCAGCCUCCUCGCUGGCGCCGGCUGGGCAACAUUCCGAGGGGACCGUCCCCUCGGUAAUGGCGAAUGGGACCCA

The variants in the data set derive from B1. Put plainly: self-cleavage, relative activity (ratio to wild type); higher = more cleavage; co-transcriptional.
Consider GGCCGGCAUGGUGCCAGCCUCCUCGCUGGCGCCGGCUGGGAAACAUUCCGAGGGGACCGUCCCCUCGGUAAUGGCGAAUGGGACCCA [C13G C41A], for which the self-cleavage turned out to be 0.0489.

For the variant GGCCGGCAUGGUGCCAGCCUCCUCGCUGGCGCCGGCUGGGGAACAUUCCGAGGGGACCGUCCCCUCGGUAAUGGCGAAUGGGACCCA [C13G C41G], the self-cleavage came to 0.

Turning to GGCCGGCAUGGUGCCAGCCUCCUCGCUGGCGCCGGCUGGGCAACAUUCCGAGGGGACCGUACCCUCGGUAAUGGCGAAUGGGACCCA [C13G C61A], the self-cleavage stood at 0.148.

On to GGCCGGCAUGGUGCCAGCCUCCUCGCUGGCGCCGGCUGGGCAACAUUCCGAGGGGACCGUCCCCUCGGUAAUGGCGAAUGGGACGCA [C13G C85G], for which the self-cleavage was 0.0692.

As for GGCCGGCAUGGUGCCAGCCUCCUCGCUGGCGCUGGCUGGGCAACAUUCCGAGGGGACCGUCCCCUCGGUAAUGGCGAAUGGGACCCA [C13G C33U], the self-cleavage came out at 0.0475.

In the case of GGCCGGCAUGGUGCCAGCCUCCUCGCUGUCGCCGGCUGGGCAACAUUCCGAGGGGACCGUCCCCUCGGUAAUGGCGAAUGGGACCCA [C13G G29U], the self-cleavage was 0.0415.

For GGCCGGCAUGGUGCCAGCCUCCUCGCUGACGCCGGCUGGGCAACAUUCCGAGGGGACCGUCCCCUCGGUAAUGGCGAAUGGGACCCA [C13G G29A], the self-cleavage was 0.0573.

With GGCCGGCAUGGUGCCAGCCUCCUCGCUGGCGCCGGCUGGGCAACAUUCCGAGGGGACCGUCCCCUCGGUAAUGGGGAAUGGGACCCA [C13G C75G], the self-cleavage was determined as 0.128.

Take GGCCGGCAUGGUGCCAGCCUCCUCGCUGGCGCCGGCUGGGCAACAUUCCGAGGGGACCGUCCCCUCGGUAAUGGAGAAUGGGACCCA [C13G C75A]: the self-cleavage was found to be 0.

For the variant GGCCGGCAUGGUGCCAGCCUCCUCGCUGGCGCCGGCUGGGCAACAUUCCGAGGGGACCGUCCCCUCGGUAAUGGUGAAUGGGACCCA [C13G C75U], the self-cleavage was 0.0594.

With GGCCGGCAUGGUGCCAGCCUCCUCGCUGGCGCCGGCUGGGCAACAUUGCGAGGGGACCGUCCCCUCGGUAAUGGCGAAUGGGACCCA [C13G C48G], the self-cleavage amounted to 0.0615.

As to GGCCGGCAUGGUGCCAGCCUCCUCGCUGGCGCCGGCUGGGCAACAUUACGAGGGGACCGUCCCCUCGGUAAUGGCGAAUGGGACCCA [C13G C48A], the self-cleavage came to 0.26.

GGCCGGCAUGGUGCCAGCCUCCUCGCUGGCGCCGGCUGGGCAACAUUCCGAGGGGACCGUCCCAUCGGUAAUGGCGAAUGGGACCCA [C13G C64A]: the self-cleavage was determined as 0.0396.

Take GGCCGGCAUGGUGCCAGCCUCCUCGCUGGCGCCGGCUGGGCAACAUUCCGAGGGGACCGUCCCUUCGGUAAUGGCGAAUGGGACCCA [C13G C64U]: the self-cleavage came out at 0.0268.

Regarding GGCCGGCAUGGUGCCAGCCUCCUCGCUGGCGUCGGCUGGGCAACAUUCCGAGGGGACCGUCCCCUCGGUAAUGGCGAAUGGGACCCA [C13G C32U], the self-cleavage is 0.0437.

Take GGCCGGCAUGGUGCCAGCCUCCUCGCUGGCGACGGCUGGGCAACAUUCCGAGGGGACCGUCCCCUCGGUAAUGGCGAAUGGGACCCA [C13G C32A]: the self-cleavage is 0.0875.

Consider GGCCGGCAUGGUGCCAGCCUCCUCGCUGGCGCCGGCUGGGCAACAUUCCGAGGCGACCGUCCCCUCGGUAAUGGCGAAUGGGACCCA [C13G G54C], for which the self-cleavage stood at 0.115.

For GGCCGGCAUGGUGCCAGCCUCCUCGCUGGCGCCGGCUGGGCAACAUUCCGAGGUGACCGUCCCCUCGGUAAUGGCGAAUGGGACCCA [C13G G54U], the self-cleavage amounted to 0.0282.

Turning to GGCCGGCAUGGUGCCAGCCUCCUCGCUGGCGCCGGCUGGGCAACAUUCCGAGGAGACCGUCCCCUCGGUAAUGGCGAAUGGGACCCA [C13G G54A], the self-cleavage was found to be 0.0604.

As to GGCCGGCAUGGUGCCAGCCUCCUCGCUGGCGCCGGCUGGGCAACAUUCCCAGGGGACCGUCCCCUCGGUAAUGGCGAAUGGGACCCA [C13G G50C], the self-cleavage worked out at 0.0594.

Regarding GGCCGGCAUGGUGCCAGCCUCCUCGCUGGCGCCGGCUGGGCAACAUUCCAAGGGGACCGUCCCCUCGGUAAUGGCGAAUGGGACCCA [C13G G50A], the self-cleavage is 0.131.

As to GGCCGGCAUGGUGCCAGCCUCCUCGCUGGCGCCGGCUGGGCAACAUUCCGAGGGGACCGUCGCCUCGGUAAUGGCGAAUGGGACCCA [C13G C62G], the self-cleavage came to 0.158.

In the case of GGCCGGCAUGGUGCCAGCCUCCUCGCUGGCGCCGGCUGGGCAACAUUCCGAGGGUACCGUCCCCUCGGUAAUGGCGAAUGGGACCCA [C13G G55U], the self-cleavage came to 0.0583.

As for GGCCGGCAUGGUGCCAGCCUCCUCGCUGGCGCCGGCUGGGCAACAUUCCGAGGGCACCGUCCCCUCGGUAAUGGCGAAUGGGACCCA [C13G G55C], the self-cleavage was 0.135.

Consider GGCCGGCAUGGUGCCAGCCUCCUCGCUGGCGCCGGCUGGGCAACAUUCCGAGGGGACCGUCCCCUCGGUAAUGGCGAAUGGGAACCA [C13G C84A], for which the self-cleavage stood at 0.

Consider GGCCGGCAUGGUGCCAGCCUCCUCGCUGGCGCCGGCUGGGCAACAUUCCGAGGGGACCGUCCCCUCGGUAAUGGCGAAUGGGAGCCA [C13G C84G], for which the self-cleavage was 0.0978.

For the variant GGCCGGCAUGGUGCCAGCCUCUUCGCUGGCGCCGGCUGGGCAACAUUCCGAGGGGACCGUCCCCUCGGUAAUGGCGAAUGGGACCCA [C13G C22U], the self-cleavage stood at 0.

Regarding GGCCGGCAUGGUGCCAGCCUCCUCGCUGGCGCCAGCUGGGCAACAUUCCGAGGGGACCGUCCCCUCGGUAAUGGCGAAUGGGACCCA [C13G G34A], the self-cleavage turned out to be 0.0536.

In the case of GGCCGGCAUGGUGCCAGCCUCCUCGCUGGCGCCCGCUGGGCAACAUUCCGAGGGGACCGUCCCCUCGGUAAUGGCGAAUGGGACCCA [C13G G34C], the self-cleavage turned out to be 0.178.

Regarding GGCCGGCAUGGUGCCAGCCUCCUCGCUGGCGCCGGCUGGGCAACAUUCCGAGGGGAUCGUCCCCUCGGUAAUGGCGAAUGGGACCCA [C13G C57U], the self-cleavage was determined as 0.0426.

Turning to GGCCGGCAUGGUGCCAGCCUCCUCGCUGGCGCCGGCUGGGCAACAUUCCGAGGGGAACGUCCCCUCGGUAAUGGCGAAUGGGACCCA [C13G C57A], the self-cleavage was 0.0554.

In the case of GGCCGGCAUGGUGCCAGCCUCCUCGCUGGCGCCGGCUGGGCAACAUUCCGAGGGGAGCGUCCCCUCGGUAAUGGCGAAUGGGACCCA [C13G C57G], the self-cleavage amounted to 0.107.
